Holding throughout (experiment): cell-based or functional assay
In assay [1] the target is PSMA on C42B and LNCap cells (UniProt Q04609 1-750, limits assumed).
For assay [2], the target named is T1, KLK2 on VCaP cells (UniProt P20151 25-261, limits assumed).
For assay [3], the target named is T1, KLK2 on VCaP cells. This is another data set of the same source.

Substitutions are numbered along the chain they refer to.

T1 sequence (P20151 25-261 limits assumed): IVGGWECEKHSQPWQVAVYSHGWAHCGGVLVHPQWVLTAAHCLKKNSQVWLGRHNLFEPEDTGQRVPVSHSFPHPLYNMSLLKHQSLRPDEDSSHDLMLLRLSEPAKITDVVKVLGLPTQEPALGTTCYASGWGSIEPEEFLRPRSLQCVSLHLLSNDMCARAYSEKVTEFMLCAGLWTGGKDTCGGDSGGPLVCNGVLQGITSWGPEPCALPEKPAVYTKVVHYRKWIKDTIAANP
Chain of PSMA on C42B and LNCap cells (Q04609 whole entry): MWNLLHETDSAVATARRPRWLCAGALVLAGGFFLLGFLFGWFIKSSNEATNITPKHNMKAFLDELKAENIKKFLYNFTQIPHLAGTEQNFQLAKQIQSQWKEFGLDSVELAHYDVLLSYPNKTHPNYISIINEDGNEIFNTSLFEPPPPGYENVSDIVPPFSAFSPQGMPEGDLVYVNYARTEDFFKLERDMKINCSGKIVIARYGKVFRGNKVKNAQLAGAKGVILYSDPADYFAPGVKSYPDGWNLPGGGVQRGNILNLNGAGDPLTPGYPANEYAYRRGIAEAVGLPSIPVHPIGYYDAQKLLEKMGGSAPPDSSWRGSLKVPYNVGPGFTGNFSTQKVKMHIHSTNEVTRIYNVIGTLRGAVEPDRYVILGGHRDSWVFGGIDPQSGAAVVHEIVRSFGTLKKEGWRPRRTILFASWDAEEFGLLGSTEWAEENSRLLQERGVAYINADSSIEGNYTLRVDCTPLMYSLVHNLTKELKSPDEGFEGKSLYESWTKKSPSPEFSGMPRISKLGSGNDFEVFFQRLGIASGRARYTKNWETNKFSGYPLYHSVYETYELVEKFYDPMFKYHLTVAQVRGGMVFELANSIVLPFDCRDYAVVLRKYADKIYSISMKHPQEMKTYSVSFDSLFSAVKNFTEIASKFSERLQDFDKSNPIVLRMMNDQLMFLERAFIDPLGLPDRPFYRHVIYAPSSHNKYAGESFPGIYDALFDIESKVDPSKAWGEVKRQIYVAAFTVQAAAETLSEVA

B1: PSMB952 (antibody, V domains shown)
VH: EVQLVESGGGLVQPGGSLRLSCAASGFTFSSYAMSWVRQAPGKGLEWVSAISGGIGSTYYADSVKGRFTISRDNSKNTLWLQMNSLRAEDTAVYYCAKDGVGATPYYFDYWGQGTLVTVSS
VL: QSVLTQPPSVSAAPGQKVTISCSGSSSNIGINYVSWYQQLPGTAPKLLIYDNNKRPSGIPDRFSGSKSGTSATLGITGLQTGDEADYYCGTWDSSLSAVVFGGGTKLTVL
Take B1: in assay [1], the “In vitro ADCC killing EC50 (M), NK cells at 24 hour, C42B cells” value came to 2.45e-11 M; the “In vitro ADCC killing EC50 (M), NK cells at 24 hour, LNCap cells” value was 4.59e-11 M; the “In vitro ADCC killing EC50 (M), PBMC at 6 hour, C42B cells” value is 3.51e-10 M; the “In vitro ADCC killing EC50 (M), PBMC at 6 hour, LNCap cells” value was found to be 2.01e-10 M.

B2: PSMB956 (antibody, V domains shown)
VH: B1 VH with I55S, W80Y, T91S
VL: B1 VL
Regarding B2, in assay [1], the “In vitro ADCC killing EC50 (M), NK cells at 24 hour, C42B cells” value was found to be 9.96e-12 M; the “In vitro ADCC killing EC50 (M), NK cells at 24 hour, LNCap cells” value amounted to 3.58e-11 M; the “In vitro ADCC killing EC50 (M), PBMC at 6 hour, C42B cells” value was 4.23e-10 M; the “In vitro ADCC killing EC50 (M), PBMC at 6 hour, LNCap cells” value worked out at 1.52e-10 M.

B3: KL2B870 (KL2B30 in hIgG1-RE) (antibody)
heavy: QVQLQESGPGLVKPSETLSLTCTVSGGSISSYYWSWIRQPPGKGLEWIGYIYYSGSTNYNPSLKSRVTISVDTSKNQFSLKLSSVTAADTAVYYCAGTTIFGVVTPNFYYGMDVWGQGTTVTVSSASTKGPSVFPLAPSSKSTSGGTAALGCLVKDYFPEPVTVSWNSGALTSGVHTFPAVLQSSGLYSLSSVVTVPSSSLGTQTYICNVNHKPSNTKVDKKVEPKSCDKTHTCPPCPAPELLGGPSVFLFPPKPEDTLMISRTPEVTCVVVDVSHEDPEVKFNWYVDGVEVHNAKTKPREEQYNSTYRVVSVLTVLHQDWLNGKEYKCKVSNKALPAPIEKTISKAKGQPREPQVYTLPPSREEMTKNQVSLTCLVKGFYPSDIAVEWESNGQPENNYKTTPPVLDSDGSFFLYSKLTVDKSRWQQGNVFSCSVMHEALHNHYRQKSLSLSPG
light: DIQMTQSPSFLSASVGDRVTITCRASQGISSYLAWYQQKPGKAPKFLIYAASTLQSGVPSRFSGSGSGTEFTLTISSLQPEDFATYYCQQLNSYPLTFGGGTKVEIKRTVAAPSVFIFPPSDEQLKSGTASVVCLLNNFYPREAKVQWKVDNALQSGNSQESVTEQDSKDSTYSLSSTLTLSKADYEKHKVYACEVTHQGLSSPVTKSFNRGEC
As to B3, in the assay with KLK2 on VCaP cells [2], the “ADCC activity, percent cell killing of VcaP cells by PBMC” value (“ADCC activity, percent cell killing” below) was approximately 73%. Also, the “EC50 (M), in vitro ADCC dose-response killing by PBMC on VcaP cells at 48 hour” value (shortened to “EC50 (M) … at 48 hour”) with KLK2 on VCaP cells [3] was found to be 1e-09 M.

B4: KL2B872.CLF (antibody, human IgG1, kappa)
heavy: not shown
light: B3 light
modifications: low fucosylation of the Asn-297-linked N-oligosaccharide (expressed in fucosylation-deficient cells)
Regarding B4, the “ADCC activity, percent cell killing” value with KLK2 on VCaP cells [2] is approximately 85%. In the assay with KLK2 on VCaP cells [3], the “EC50 (M) … at 48 hour” value came out at 4.12e-10 M.

B5: KL2B870.CLF (antibody, human IgG1, kappa)
heavy: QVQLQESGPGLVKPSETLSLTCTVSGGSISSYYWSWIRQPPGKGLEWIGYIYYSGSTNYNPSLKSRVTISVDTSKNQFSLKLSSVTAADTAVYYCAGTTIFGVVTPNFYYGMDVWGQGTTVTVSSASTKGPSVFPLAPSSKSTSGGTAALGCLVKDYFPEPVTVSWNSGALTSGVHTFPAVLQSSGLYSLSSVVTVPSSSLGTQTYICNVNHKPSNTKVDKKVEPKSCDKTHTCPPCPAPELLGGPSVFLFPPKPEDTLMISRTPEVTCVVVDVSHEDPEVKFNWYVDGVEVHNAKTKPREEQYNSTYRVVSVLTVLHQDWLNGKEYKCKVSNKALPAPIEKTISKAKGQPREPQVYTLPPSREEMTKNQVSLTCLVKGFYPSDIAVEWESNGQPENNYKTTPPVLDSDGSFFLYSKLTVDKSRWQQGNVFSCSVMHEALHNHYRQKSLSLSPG
light: B3 light
modifications: low fucosylation of the Asn-297-linked N-oligosaccharide (expressed in fucosylation-deficient cells)
Regarding B5, in the assay with KLK2 on VCaP cells [2], the “ADCC activity, percent cell killing” value was approximately 89%. Also, the “EC50 (M) … at 48 hour” value in the assay with KLK2 on VCaP cells [3] was 3.54e-10 M.

The values above are taken from patent US20220356266A1 (Janssen / Centocor, published 2022).
